The values below come from US20260185118A1 (priority 2023, published 2026).

Substitutions are numbered along the chain they refer to. Like-named read-outs stand apart in the source and are kept apart here.

The subject of one data set is bacterial and fungal. The settings on record: it has been shown; cited from earlier work.
The format of data set [1] is biochemical, Citrus sinensis L.Osbeck. The settings on record: 2 μg protein, 10 μg FPP, 30° C., 30 min.
Data set [2] relates to terpene synthase CsTPS21 gene cluster. It is filed as in vivo, Valencia orange. The following applies: transgenic citrus leaves overexpressing, compared with blank vector control.
Data set [3] relates to CsMYC2. Format: biochemical, Citrus sinensis. The settings on record: with AtUBA1, AtUBC8 and ubiquitin, anti-MBP immunoblot. (In general: A western blot detects proteins with antibodies after separation by electrophoresis.)
The subject of data set [4] is Huanglongbing pathogen CLas. Format: in vivo, Candidatus Liberibacter asiaticus. The following applies: for pathogen titer versus vector control: qPCR, newborn leaves; for disease phenotype: 3 months after grafting infected branches onto transgenic citrus.
The subject of data set [5] is CsMYC2. Format: cell-based, Citrus sinensis. The settings on record: tobacco leaves, 2-3 days, cytoplasm and nucleus.
In the next data set the test system is CsMYC2 protein. Format: cell-based, Citrus sinensis. The settings on record: tobacco leaves, 35S:CsMYC2-myc co-injected, versus 35S:YFP.
Data set [6] concerns CsMYC2. Format: binding, Citrus sinensis. The settings on record: yeast AH109, SD-Leu-Trp-His with 5 mM 3-AT.
In another data set the test system is CsPUB21. Format: biochemical, Citrus sinensis. The settings on record: in the presence of E1 (AtUBA1) and E2 (AtUBC8), anti-c-myc immunoblot.
In data set [7] the test system is Huanglongbing pathogen CLas. Also noted: species or system Candidatus Liberibacter asiaticus. The following applies: in vivo.
The test system of data set [8] is Huanglongbing pathogen CLas. It is filed as in vivo, Candidatus Liberibacter asiaticus. The settings on record: 7 days after feeding of CLas-carrying psyllids, qPCR. For orientation: Real-time PCR tracks product formation cycle by cycle.

`C=C1CC/C=C(\C)CC[C@@H]2[C@@H]1CC2(C)C` [β-caryophyllene]: in the data set on bacterial and fungal, the “bacterial and fungal killing effect” value was “rapid bacterial and fungal killing effect”.

B1: CsTPS21-7: citrus terpene synthase protein, SEQ ID No. 7, purified as GST fusion protein (protein)
chain: MKDMSIPLLAAVSSSTEETVRPIADFHPTLWGNHFLKSAADVETIDAATQEQHAALKQEVRRMITTTANKLAQKLHMIDAVQRLGVAYHFEKEIEDELGKVSHDLDSDDLYVVSLRFRLFRQQGVKISCDVFDKFKDDEGKFKESLINDIRGMLSLYEAAYLAIRGEDILDEAIVFTTTHLKSVISISDHSHVNSNLAEQIRHSLQIPLRKAAARLEARYFLDIYSRDDLHDETLLKFAKLDFNILQAAHQKEASIMTRTKDISEVDTILGVKVKKHSGERANISIIFDFFRWDIGLIDTLPEYMKFIVKALLDIYREAEEELAKEGRSYGIPYAKQMMQELIILYFTEAKWLYKGYVPTFDEYKSVALRSIGLRTLAVASFVDLGDFIATKDNFECILKNAKSLKATETIGRLMDDIAGYKFEQKRGHNPSAVECYKNQHGVSEEEAVKELLLEVANSWKDINEELLNPTTVPLPMLQRLLYFARSGHFIYDDGHDRYTHSLMMKRQVALLLTEPLAI
modifications: GST fusion tag
With B1, in data set [1], the “7-epi-sesquiterpene share of the total compounds” value is on record as 4.79±0.11%, the “(E)-β-farnesene share of the total compounds” value came out at 5.54±0.32%, the “sesquiterpene share of the total compounds” value came out at 7.86±0.70% and the “β-caryophyllene share of the total product” value is recorded as 81.81±0.92%.

B2: CsPUB21-Myc (protein)
chain: MILSWKRLRGGRGRRAGKKQPGVESGGEMELTTPNHFRCPISLDLMKDPVTLSTGITYDRENIEKWIHEDGNITCPVTNRVLTSFEPIPNHTIRRMIQDWCVENRSYGIERIPTPRIPVSSVEVFEINCNITTACKSEDQAGCRDLVAKIKKWTKESDRNKRCIVDNGAVSVLAEAFETFSKTCLDENVSVLEEILSTLTLLFPLAGEGLTYLGSASSMRCMVWFLKSGDLSRRRNAVLVLREIVSSDHRKVNVLLDIEGAIEPLFKLIKEPICPTATKASLVVVYRTITSASATEKPIQKFVDMGLVSLLLEMLVDAQRSLCEKALSVLDGLCSSDYGRGDAYNNSLIFPVIVKKILRVSDLATEFAVSILWKLCKNEEREEKTAFAEALQVGAFQKLLLLLQVGCADKTKEHVSELLKLLNPHRARLECIDSMDFKDLKRPF
Consider B2, for which the “polyubiquitination of MBP-CsMYC2 (immunoblot with anti-MBP tag antibody; E. coli system with AtUBA1, AtUBC8 and FLAG-UBQ)” value in the data set with MBP-CsMYC2-HA is “CsPUB21 is able to effectively polyubiquitinate the CsMYC2 protein in vitro”.

B3: YFP-CsPUB21 (protein)
chain: B2 chain
Consider B3, for which the “accumulated level of the CsMYC2 protein on co-expression in tobacco leaves (immunoblot, anti-c-myc)” value with CsMYC2-myc is “the accumulated level of the CsMYC2 protein and coexpression of CsPUB21 were significantly reduced”.

B4: CsPUB21DN-Myc (protein)
chain: B2 chain with C39A
For the molecule B4, the “polyubiquitination of MBP-CsMYC2 (immunoblot with anti-MBP tag antibody; E. coli system with AtUBA1, AtUBC8 and FLAG-UBQ)” value with MBP-CsMYC2-HA is given as “CsPUB21DN cannot ubiquitinate CsMYC2”.

B5: CsPUB21: citrus plant U-box E3 ubiquitin ligase protein, amino acid sequence SEQ ID No. 1; overexpressed in citrus (protein)
chain: B2 chain
On to B5, for which the “expression of four CsTPS21 genes (CsTPS21-2, CsTPS21-7, CsTPS21-9, CsTPS21-10)” value in data set [2] was “significantly reduces”. The “polyubiquitination of the CsMYC2 protein in vitro” value in the data set with CsMYC2 [3] was “able to effectively polyubiquitinate”. Besides, the “pathogen titer versus vector control” value in data set [4] (2 and 3 months of pathogen infestation) is listed as “significantly higher than that of the vector control”. In addition, the disease phenotype result in data set [4] was “show disease characteristics of Huanglongbing infection”. Besides, the “interaction with CsMYC2 (BiFC)” value in the data set on CsMYC2 [5] is “confirmed”. In addition, in the data set on CsMYC2 protein, the “accumulated level of the CsMYC2 protein on coexpression” value is “significantly reduced”. Also, the “interaction with CsMYC2 (yeast two-hybrid)” value with CsMYC2 [6] is “interaction between CsPUB21 and CsMYC2 was confirmed”. The “E3 ubiquitin ligase activity (auto-ubiquitination)” value with CsPUB21 is “has the E3 ubiquitin ligase activity”.

B6: CsPUB21DN (protein)
chain: B2 chain with C39A
modifications: left off: large carriers
For B6, the “concentration of CLas in the susceptible leaves” value in data set [7] is “significantly reduced”. In addition, in data set [4], the disease phenotype entry is listed as “still show a healthy state”. For the same molecule, the “pathogen titer versus vector control” value in data set [4] (3 months of infestation) is given as “lower pathogen titer than the vector control plants”. Further, in [8], the “CLas detection versus vector control plants” value is on record as “significantly lower than that of the vector control plants” and the “Ct values versus healthy plants” value is recorded as “no difference in the Ct values”.

B7: YFP-CsPUB21DN (protein)
chain: B2 chain with C39A
Consider B7, for which the “accumulated level of the CsMYC2 protein on co-expression in tobacco leaves (immunoblot, anti-c-myc)” value with CsMYC2-myc is reported as “this reduction was inhibited by coexpression of CsPUB21DN”.
